Data published in the supplement of paper PMC10567573.

B1: FAM50A (parent)
chain: KKREKQREQMEQMKQRIAEENIMK
B2: MGC16075 (parent)
chain: AGSRQALSFEVPPCNYDPEKWIQ

Variants of: B1
Test: protein stability index of a GFP-peptide fusion (GPS, HEK-293T) (PSI 1-6); higher = more stable
Conditions: c terminus: a fixed tail appended
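Also: lentivirally expressed fusions sorted by FACS into six bins by GFP to DsRed ratio, PSI derived from sequencing read proportions per bin multiplied by bin number.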

Variant	protein stability index
I17E	5.1
I17K	4.25
I17N	5.2
I17M	4.87
I17F	5.12
I17D	5.3
I17G	5.41
I17L	4.92
I17A	5.39
I17W	4.25
I17R	4.77
I17C	4.37
I17V	4.87
I17Q	5.44
I17P	5.52
I17Y	4.46
I17H	5.02
I17T	5.3
I17S	5.3
M23K	4.99
M23L	4.49
M23P	5.46
M23I	4.04
M23N	4.66
M23G	5

Variant	protein stability index
M23Y	4.75
M23W	4.02
M23Q	5.45
M23E	5.25
M23H	4.89
M23S	5.28
M23R	3.3
M23C	4.83
M23T	4.93
M23V	5.27
M23A	4.63
M23D	5.14
M23F	4.32
N21C	4.63
N21H	4.46
N21A	4.73
N21K	5.35
N21S	4.75
N21I	4.17
N21P	4.85
N21Y	4.41
N21L	3.99
N21G	4.75
N21Q	5.48
N21V	4.03

Variant	protein stability index
N21T	4.77
N21W	3.91
N21E	5.12
N21F	4.31
N21R	4.35
N21M	4.64
N21D	5.11
Q15R	4.73
Q15P	4.9
Q15W	4.29
Q15M	4.5
Q15F	4.44
Q15E	5.51
Q15K	4.4
Q15D	5.02
Q15S	4.9
Q15C	4.19
Q15A	4.67
Q15N	4.8
Q15L	4.7
Q15V	4.36
Q15H	4.84
Q15Y	4.14
Q15G	4.68
Q15T	4.85

Variant	protein stability index
Q15I	4.51
I22A	4.48
I22D	5.54
I22E	5.68
I22S	5.33
I22W	4.63
I22L	4.91
I22K	4.16
I22C	5.22
I22V	4.85
I22P	5.12
I22Q	4.75
I22N	5.12
I22G	5.2
I22Y	4.18
I22H	4.8
I22F	3.93
I22M	5.07
I22T	5.46
I22R	4.92
Q9Y	4.51
Q9W	4.13
Q9E	5.18
Q9L	4.92
Q9I	4.01

Variant	protein stability index
Q9S	4.74
Q9M	4.4
Q9V	4.67
Q9N	4.8
Q9H	4.68
Q9G	4.75
Q9T	4.72
Q9C	4.73
Q9A	4.86
Q9D	4.96
Q9P	4.89
Q9K	4.93
Q9R	4.56
Q9F	4.16
K14A	5.21
K14R	4.59
K14P	5.67
K14Q	5.15
K14H	5.01
K14C	4.57
K14M	4.53
K14S	5.06
K14T	4.3
K14E	5.01
K14G	5.02

Variant	protein stability index
K14L	4.11
K14F	4.32
K14N	4.86
K14Y	4.39
K14W	3.9
K14D	5.02
K14I	4.05
K14V	4.63
E20N	4.44
E20M	3.79
E20A	4.47
E20G	4.34
E20W	3.47
E20H	4.39
E20D	4.85
E20I	4
E20Q	4.17
E20K	3.96
E20T	4.85
E20C	4.53
E20F	3.79
E20P	4.8
E20S	3.37
E20R	4.48
E20V	3.74

Variant	protein stability index
E20Y	3.62
E20L	3.84
E11T	4.57
E11V	4.66
E11M	4.17
E11D	5.03
E11F	4.15
E11G	4.48
E11Q	4.68
E11S	4.41
E11I	4.4
E11R	4.49
E11K	4.5
E11P	4.74
E11L	3.96
E11H	4.62
E11Y	4.25
E11N	4.86
E11C	4.13
E11W	3.9
M13E	5.5
M13W	2.63
M13V	4.82
M13D	5.13
M13I	4.29

Variant	protein stability index
M13N	5.21
M13F	4.67
M13R	5.08
M13P	4.99
M13T	5.31
M13Y	3.98
M13G	5.27
M13H	4.65
M13S	5.31
M13A	4.95
M13L	5.37
M13Q	5.26
M13K	4.77
M13C	5.03
M10F	4.15
M10S	4.89
M10E	5.14
M10I	4.7
M10T	4.69
M10K	4.71
M10Y	4.61
M10L	4.07
M10R	5.14
M10C	4.86
M10Q	4.86

Variant	protein stability index
M10A	4.92
M10N	4.9
M10V	4.37
M10D	4.81
M10G	5.19
M10H	5.16
M10W	4.7
M10P	5.15
K24I	4.35
K24D	5.12
K24T	4.95
K24E	4.85
K24M	5.03
K24Q	4.86
K24G	4.99
K24R	4.16
K24L	4.13
K24P	4.46
K24V	4.82
K24C	5.14
K24Y	4.24
K24N	4.77
K24W	3.77
K24A	4.33
K24H	4.97

Variant	protein stability index
K24F	4.39
K24S	4.88
A18C	4.35
A18M	4.12
A18R	4.39
A18D	5.35
A18W	4.09
A18L	4.72
A18P	4.79
A18I	4.36
A18K	3.97
A18S	4.78
A18E	4.62
A18Q	5.31
A18V	4.69
A18G	4.64
A18T	4.59
A18N	4.93
A18H	4.19
A18F	4.84
A18Y	4.43
Q12S	4.84
Q12K	4.57
Q12R	4.39
Q12A	4.44

Variant	protein stability index
Q12H	4.58
Q12D	5.02
Q12E	5.28
Q12P	4.9
Q12T	4.7
Q12G	4.66
Q12M	4.27
Q12I	4.63
Q12V	5.07
Q12N	5.04
Q12W	4.45
Q12L	4.55
Q12C	5.05
Q12F	3.71
Q12Y	4.55
R16F	4.52
R16K	4.83
R16Y	5.15
R16L	4.51
R16A	5.42
R16S	5.52
R16V	5.02
R16D	5.56
R16G	5.32
R16H	5.09

Variant	protein stability index
R16M	4.89
R16W	3.94
R16Q	4.97
R16C	4.81
R16T	5.01
R16I	4.71
R16E	5.53
R16P	5.19
R16N	4.67
E19I	2.92
E19D	4.33
E19P	4.19
E19S	4.33
E19H	4.6
E19M	4.09
E19G	4.78
E19L	3.22
E19N	4.34
E19C	3.9
E19Y	4.38
E19F	3.71
E19V	3.47
E19T	4.78
E19Q	4.72
E19R	4.98

Variant	protein stability index
E19A	4.63
E19W	3.66
E19K	5.08
E8P	4.89
E8V	4.37
E8S	4.41
E8W	3.68
E8Y	4.23
E8L	4.57
E8K	4.48
E8Q	4.82
E8T	4.31
E8R	4.71
E8M	4.58
E8N	4.44

Variants of: B2
Test: as above
Conditions: c terminus: native

Variant	protein stability index
P12V	2.72
I22V	2.75
I22A	4.22
K20T	3.33
K20C	2.26
Y16I	2.01
Q5E	3.29
C14Q	2.05
C14R	1.92
R4K	1.72
G2T	1.95
L7W	2.77
L7F	3.58
A1N	2.23
N15T	1.64
E10A	3.25
S3C	1.52
S3W	2.7
S3H	2.44
